B1: Dexamethasone-induced Ras-related protein 1 (Mus musculus), O35626 (parent)
chain: MKLAAMIKKMCPSDSELSIPAKNCYRMVILGSSKVGKTAIVSRFLTGRFEDAYTPTIEDFHRKFYSIRGEVYQLDILDTSGNHPFPAMRRLSILTGDVFILVFSLDNRDSFEEVQRLKQQILDTKSCLKNKTKENVDVPLVICGNKGDRDFYREVEQREIEQLVGDDPQRCAYFEISAKKNSSLDQMFRALFAMAKLPSEMSPDLHRKVSVQYCDVLHKKALRNKKLLRAGSGGGGDHGDAFGILAPFARRPSVHSDLMYIREKTSVGSQAKDKERCVIS
partner: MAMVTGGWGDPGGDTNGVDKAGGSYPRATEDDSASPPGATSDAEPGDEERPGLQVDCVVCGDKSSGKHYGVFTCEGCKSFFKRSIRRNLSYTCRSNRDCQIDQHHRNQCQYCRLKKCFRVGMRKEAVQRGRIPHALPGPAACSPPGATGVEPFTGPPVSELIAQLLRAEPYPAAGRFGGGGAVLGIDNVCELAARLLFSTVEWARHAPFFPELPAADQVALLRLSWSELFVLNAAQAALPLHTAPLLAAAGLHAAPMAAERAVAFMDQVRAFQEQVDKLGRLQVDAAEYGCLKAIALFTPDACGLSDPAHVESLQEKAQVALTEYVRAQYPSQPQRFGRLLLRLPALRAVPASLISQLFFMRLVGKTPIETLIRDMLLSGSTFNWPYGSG

Variants of: B1
Settings: with nr2f6_mouse Nr2f6, P43136

Variant	effect of a mutation on the interaction
K34N	decreasing interaction
G81A	decreasing interaction

Reference: IntAct's records for PubMed 21247419
